Assay results published in paper PMC6445550.

System: CCCCCCCCCCCCCCCC(=O)SCCNC(=O)CCNC(=O)[C@H](O)C(C)(C)COP(=O)(O)OP(=O)(O)OC[C@H]1O[C@@H](n2cnc3c(N)ncnc32)[C@H](O)[C@@H]1OP(=O)(O)O
Assay: purified protein

## zDHHC9 (Homo sapiens)
  Km: 45 ± 4 µM
